Our source for the IC50, Relative binding (%) with Mutant Ang2 compared to the binding with native Ang2 and Kd values is patent US20150152192A1 (SAMSUNG ELECTRONICS, published 2015).

The labels stand for the following.
B1: SAIT-ANG-2-AB-2-E6 (scFv form) (scFv, V domains shown)
VH: EVQLLESGGGLVQTGGSLRLSCAASGFTFSDYAMSWVRQAPGKGLEWVSAIYPDSGNKYYADSVKGRFTISRDNSKNTLYLQMNSLRAEDTAVYYCARHSSDPKVKSGYYDDGMDVWGQGTLVAVSS
VL: QSVLTQPPSASGTPGQRVTISCSGSSSNIGNNAVNWYQQLPGTAPKLLIYADSNRPSGVPDRFSGSKSGTSASLAISGLRSEDEADYYCGSWDYSLSGYVFGGGTKLTVLG
notes: scFv from a phage display library, partly purified from E. coli periplasm on Ni-NTA and detected with anti-HA
B2: SAIT-ANG-2-AB-4-C11 (scFv form) (scFv, V domains shown)
VH: EVQLLESGGGLVQPGGSLRLSCAASGFTFSDYAMSWVRQAPGKGLEWVSSIYPDDGNTYYADSVKGRFTISRDNSKNTLYLQMNSLRAEDTAVYYCARHTSHHTSIDGYYYYGMDGWGQGTLVTVSS
VL: B1 VL with S23T, A33D, N35S, A51S, N54K
notes: scFv from a phage display library
B3: SAIT-ANG-2-AB-4-F11 (scFv form) (scFv, V domains shown)
VH: EVQLLESGGGLVQTGGSLRLSCAASGFTFSDYAMSWVRQAPGKGLEWVSSIYPDDGNTYYADSVKGRFTISRDNSKNTLYLQMNSLRAEDTAVYYCAKHPVRLNLHPMYYYYGMDVWGQGTLVTVSS
VL: B1 VL with S23T, N35S, A51S, N54Q, G90A, S91T, G98A
notes: as for B2
B4: SAIT-ANG-2-AB-7-C9 (scFv form) (scFv, V domains shown)
VH: EVQLLESGGGLVQPGGSLRLSCAASGFTFSNYAMSWVRQAPGKGLEWVSAISSGGGNIYYADSVKGRFTISRDNSKNTLYLQMNSLRAEDTAVYYCAKSGIQPSPPSMSSAYAMDVWGQGTLVTVSS
VL: B1 VL with A33D, N35Y, D52N, N54H, S91T
notes: as for B2
B5: SAIT-ANG-2-AB-3-D3 (scFv form) (scFv, V domains shown)
VH: EVQLLESGGGLVQPGGSLRLSCAASGFTFSDYDMSWVRQAPGKGLEWVSGISSDDGNTYYADSVKGRFTISRDNSKNTLYLQMNSLRAEDTAVYYCARPTIDKYTLRGYYSYGMDVWGQGTLVTVSS
VL: B1 VL with S23T, N31S, A33Y, N35S, A51S, S53N, N54K, S91T, Y94D, S97N
notes: as for B2
B6: SAIT-ANG-2-AB-8-A5 (scFv form) (scFv, V domains shown)
VH: EVQLLESGGGLVQPGGSLRLSCAASGFTFSDYYMSWVRQAPGKGLEWVSGIYPSGGSTYYADSVKGRFTISRDNSKNTLYLQMNSLRAEDTAVYYCARDPSTLTYAGFDYWGQGTLVTVSS
VL: B1 VL with A33Y, N35T, N54H, G90A, S91T
notes: as for B2
B7: SAIT-ANG-2-AB-4-F5 (scFv form) (scFv, V domains shown)
VH: EVQLLESGGGLVQPGGSLRLSCAASGFTFSDYDMSWVRQAPGKGLEWVSSISHGDSNKYYADSVKGRFTISRDNSKNTLYLQMNSLRAEDTAVYYCAKSSGIQESPPTYYYYGMDVWGQGTLVTVSS
VL: B1 VL with N31S
notes: as for B2

As usually defined, the IC50 is the concentration that gives 50% inhibition. Usually Kd stands for the equilibrium constant for the complex coming apart. A high value points to lower affinity.

Numbering of substitutions follows the chain as printed.

The first experiment has as its target T1, FLAG-Tagged hAng2 (human, UniProt O15123 19-496, limits assumed).
T1 construct: also called FLAG-Ang2; non-mutated Ang2
T1 sequence: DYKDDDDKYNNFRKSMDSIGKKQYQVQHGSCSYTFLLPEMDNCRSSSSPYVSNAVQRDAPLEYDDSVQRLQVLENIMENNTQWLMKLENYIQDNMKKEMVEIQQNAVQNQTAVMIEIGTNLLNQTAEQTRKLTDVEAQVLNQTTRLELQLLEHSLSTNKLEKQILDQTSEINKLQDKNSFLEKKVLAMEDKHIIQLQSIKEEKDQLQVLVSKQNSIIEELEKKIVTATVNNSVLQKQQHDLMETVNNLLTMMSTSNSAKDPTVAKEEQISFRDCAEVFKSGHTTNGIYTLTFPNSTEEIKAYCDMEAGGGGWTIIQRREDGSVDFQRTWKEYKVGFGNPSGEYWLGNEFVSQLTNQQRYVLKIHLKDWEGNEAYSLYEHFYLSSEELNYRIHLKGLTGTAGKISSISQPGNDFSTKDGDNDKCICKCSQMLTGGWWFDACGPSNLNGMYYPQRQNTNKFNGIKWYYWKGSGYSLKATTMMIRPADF
As to the kind of experiment: competitive ELISA: hTie2-Fc coated, 400 ng/ml FLAG-hAng2 plus scFv, anti-FLAG-HRP. As to the method: To verify molecular interaction of the bound assemblies, a competitive ELISA was performed. A 96-well MaxiSorp™ flat-bottom plate (Nunc) was coated with […] of hTie2-Fc (R&D Systems), which is a protein with the Fc of human IgG1 bound thereto. After that, the plate was washed five times with 0.05% (v/v) Tween-20-containing PBS (Phosphate Buffer Saline) and then blocked with 1% (v/v) BSA (Bovine serum albumin; Sigma)-containing PBS at a room temperature for 2 hours.
(§1) Thereafter, the plate was washed five times with 0.05% Tween-20-containing PBS and then, an HRP-conjugated anti-FLAG antibody (SIGMA) diluted in 1% (v/v) BSA-containing PBS at 1:5,000 ratio (v/v) was added in the amount of 100 μl (microliter) to each well to react at a room temperature for 1 hour, followed by washing five times with 0.1% (v/v) Tween-20-containing PBS. Finally, 100 μl (microliter) of TMB substrate (cell signal) was added to each well of the plate to induce color development at a room temperature for 3 min. Then, the reaction was ceased by the addition of 50 μl of 5N H₂SO₄ solution and OD450 values were measured on a plate reader (Molecular Devices).
(ELISA stands for enzyme-linked immunosorbent assay.)
For the molecule B1, the IC50 came out at 18.9 nM.
With B2, the IC50 amounted to 6.5 nM.
For the molecule B3, the IC50 turned out to be 6.6 nM.
On the same count and under the same terms, with B4 the figure was 39.7 nM; with B5, 9.9 nM; with B6, 36.3 nM.
Regarding B7, the IC50 stood at 10 nM.

In a further experiment the target is Ang2 with A449 mutated with alanine, tagged with FLAG (human) (UniProt O15123). The experiment is described as follows: ELISA, scFv coated, 250 ng FLAG-tagged Ang2 mutant, anti-FLAG-HRP.
Consider B1, for which the Relative binding (%) with Mutant Ang2 compared to the binding with native Ang2 was determined as 3.3%.
The molecule B2 had a Relative binding (%) with Mutant Ang2 compared to the binding with native Ang2 of 4.8%.
B3 displayed a Relative binding (%) with Mutant Ang2 compared to the binding with native Ang2 of 16.7%.
Turning to B4, the Relative binding (%) with Mutant Ang2 compared to the binding with native Ang2 came out at 14.5%.
The molecule B5 returned a Relative binding (%) with Mutant Ang2 compared to the binding with native Ang2 of 101%.
For B7, the Relative binding (%) with Mutant Ang2 compared to the binding with native Ang2 was 14%.

Another experiment has as its target T2, mouse Ang2 (Accession # NP-031452) (R&D Systems) (mouse, UniProt O35608 19-496, limits assumed).
T2 construct: Bought protein; also called mAng2
T2 sequence (looked up): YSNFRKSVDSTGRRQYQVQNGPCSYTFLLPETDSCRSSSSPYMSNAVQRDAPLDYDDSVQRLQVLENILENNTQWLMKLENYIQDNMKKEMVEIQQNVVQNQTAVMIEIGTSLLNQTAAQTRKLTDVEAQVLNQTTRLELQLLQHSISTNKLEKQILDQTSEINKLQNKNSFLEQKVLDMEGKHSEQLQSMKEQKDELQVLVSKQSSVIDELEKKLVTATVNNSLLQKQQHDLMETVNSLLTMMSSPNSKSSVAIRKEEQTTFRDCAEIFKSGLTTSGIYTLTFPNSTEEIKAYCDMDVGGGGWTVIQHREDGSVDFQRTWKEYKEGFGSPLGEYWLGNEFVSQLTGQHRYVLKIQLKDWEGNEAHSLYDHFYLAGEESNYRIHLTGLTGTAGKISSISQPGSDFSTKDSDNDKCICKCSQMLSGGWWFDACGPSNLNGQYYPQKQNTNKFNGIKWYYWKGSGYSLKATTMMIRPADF
As to the kind of experiment: ELISA, antigen coated, scFv, anti-HA-HRP; 50% binding concentration (Kd). The procedure: (§2) To measure binding of the antibodies prepared above with each antigen, ELISA was performed. A 96-well MaxiSorp™ flat-bottom plate (Nunc) was coated with 5˜20 μg/ml of human Ang2 and mouse Ang2 (Accession # NP_{—}031452) (both, R&D Systems). After that, the plate was washed five times with 0.05% (v/v) Tween-20-containing PBS and then blocked with 1% (v/v) BSA-containing PBS at a room temperature for 2 hours. The anti-Ang2 antibodies in their scFv forms prepared above were added to each well of the plate which was then allowed to react at a room temperature for 2 hours.
as §1, with “HRP-conjugated anti-HA (HA-probe Antibody (F-7) HRP conjugated)” for “HRP-conjugated anti-FLAG”, “antibody (Santacruz)” for “antibody (SIGMA)”, “at 1:1,000” for “at 1:5,000”, “of 50” for “of 100”, “μl” for “μl (microliter)”, “3 min and then,” for “3 min. Then,”
In turn, B1 came in with a Kd of 5.1 nM.
B2 registered a Kd of 28.6 nM.
Same read-out and setting: with B3 the figure was 20.7 nM; with B4, 8.7 nM.
As to B5, the affinity, expressed as Kd, was 37.8 nM.
On the same count and under the same terms, with B6 the figure was 11.7 nM.
For the molecule B7, the Kd was 23.8 nM.

Another experiment concerns the target T3, human Ang2 polypeptide (R&D systems; Accession #O15123; SEQ ID NO: 172) (human, UniProt O15123 19-496).
T3 construct: Bought protein; also called hAng2; human Ang2 protein
T3 sequence: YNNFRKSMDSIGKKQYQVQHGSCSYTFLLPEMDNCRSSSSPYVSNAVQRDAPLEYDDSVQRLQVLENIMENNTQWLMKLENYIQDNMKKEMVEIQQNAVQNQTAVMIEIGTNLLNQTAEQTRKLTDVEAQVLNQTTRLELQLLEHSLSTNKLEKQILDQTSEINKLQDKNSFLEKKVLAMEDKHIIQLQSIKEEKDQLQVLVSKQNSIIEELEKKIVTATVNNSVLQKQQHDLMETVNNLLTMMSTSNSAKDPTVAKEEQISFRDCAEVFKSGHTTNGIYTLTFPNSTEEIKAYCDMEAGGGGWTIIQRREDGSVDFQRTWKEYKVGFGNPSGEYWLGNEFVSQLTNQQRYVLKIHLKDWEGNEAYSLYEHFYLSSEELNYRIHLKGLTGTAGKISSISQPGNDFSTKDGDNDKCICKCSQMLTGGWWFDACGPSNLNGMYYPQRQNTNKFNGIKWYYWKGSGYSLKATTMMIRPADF
The experiment is described as above. The procedure:
as §2
as §1, with “HRP-conjugated anti-HA (HA-probe Antibody (F-7) HRP conjugated)” for “HRP-conjugated anti-FLAG”, “antibody (Santacruz)” for “antibody (SIGMA)”, “at 1:1,000” for “at 1:5,000”, “of 50” for “of 100”, “μl” for “μl (microliter)”, “3 min and then,” for “3 min. Then,”
With B1, the Kd stood at 9.3 nM.
For the molecule B2, the equilibrium dissociation constant (Kd) was 4.9 nM.
As for B3, binding was put at a Kd of 3 nM.
In turn, B4 displayed a Kd of 3.8 nM.
For the molecule B5, the affinity, expressed as Kd, was 4.3 nM.
Take B6: the affinity, expressed as Kd, was 5.3 nM.
Take B7: binding was characterised by a dissociation constant (Kd) of 12.1 nM.
